# PMC6008203
# Molecular target: PtmA2 (as used for analytical size-exclusion chromatography) (Streptomyces platensis CB00739)
# Test: SEC
substance,measurement,value
PtmA2 (as used for analytical size-exclusion chromatography) (enzyme),stoichiometry N,2
